Consider 18 molecules from US20210163601A1 (Amgen, published 2021).

Positions count from the first letter of the chain named.

Sequences and labels used below:
T1: Soluble ASGR-1 (recombinant, biotinylated) (human, UniProt P07306 62-291, limits assumed, biotinylated)
T1 construct: also called recombinant, soluble ASGR-1 biotinylated protein
T1 sequence: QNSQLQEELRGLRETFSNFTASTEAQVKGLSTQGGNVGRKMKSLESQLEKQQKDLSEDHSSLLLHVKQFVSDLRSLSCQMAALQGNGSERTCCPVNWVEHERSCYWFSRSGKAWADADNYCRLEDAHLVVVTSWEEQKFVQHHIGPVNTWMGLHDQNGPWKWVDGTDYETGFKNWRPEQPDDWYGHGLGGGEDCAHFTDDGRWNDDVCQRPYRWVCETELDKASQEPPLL

B1: 22G5 (antibody, V domains shown)
VH: EVQLLESGGGLVQPGGSLRLSCAASGFTFSSYAMNWVRQAPGMGLEWVSVISRSGGYTYYADSVKGRFTISRDNSKNTLYLQMNSLRAEDTAVYYCASRLAVAGSEAFDIWGQGTLVTVSS
VL: DIQMTQSPSSLSASVGDRVTITCRASQNISSYLNWYQQKQGKAPKLLIYAASSLQNGVPSRFSGRGSGTDFTLTISSLQPEDFATYYCQQSYRTPLFTFGPGTKVDFK
notes: Tested as hybridoma supernatant
B2: 7E11 (antibody, V domains shown)
VH: QVQLVESGGGVVQPGRSLRLSCAASGFTFSSFGMHWVRQAPGKGLEWVAIIWHDGSNKYYADSVKGRFTISRDNSNNTLYLQMSSLRAEDTAVYYCARDLSMGGMDVWGQGTTVTVSS
VL: DIQMTQSPSSLSASVGDRVTIACRASQNIISYLNWYQQKPGKAPKFLIYTASSLQSGVPSRFSGSGSGTDFTLTISSLQPEDFAIYYCQQTYSTPLTFGGGTKVEIK
notes: as for B1
B3: 25A4 (antibody, V domains shown)
VH: QVLLVQSGAEVKRPGASVKVSCKASGYTFTNYDINWVRQATGQGLEWMGWMYPNSGNTGYAQKFQGRVTMTRNTSISTAYMELSSLRSEDTAVYYCASSSGWYYFDYWGQGTLVTVSS
VL: DIVMTQFPDSLAVSLGERATIKCKSSQSVLYSSHNNNYLAWYQQKPGQPPKLLLYWASTRESGVPDRFSGSGSGTEFTLTISSLEAEDVAVYYCQQYYSTPPTFGQGTKVEIK
notes: as for B1
B4: 4A2 (antibody, V domains shown)
VH: B3 VH with L3Q, A9T, R13K, Y52H, M70L
VL: DIVMTQSPDSLAVSLGERATINCKSSQSILHSSNNNNYLAWFQQKPGQPPKLLLYWASTRESGVPDRFSGSGSGTDFTLTISSLQPEDVAVYYCQQYYNTPVTFGPGTKVGIK
notes: as for B1
B5: 26C4 (antibody, V domains shown)
VH: B3 VH with L3Q, R13K, T41S, Y52N, K63R, S77N
VL: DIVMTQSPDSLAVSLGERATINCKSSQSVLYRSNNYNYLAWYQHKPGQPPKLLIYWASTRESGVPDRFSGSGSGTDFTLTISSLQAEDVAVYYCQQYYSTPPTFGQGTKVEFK
notes: as for B1
B6: 29H8 (antibody, V domains shown)
VH: B3 VH with L3Q, K12Q, R13K, Y52N, K63R, T78A
VL: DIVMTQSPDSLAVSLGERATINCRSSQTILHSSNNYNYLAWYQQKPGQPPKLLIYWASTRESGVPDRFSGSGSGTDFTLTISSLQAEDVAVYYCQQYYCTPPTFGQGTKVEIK
notes: as for B1
B7: 7G4 (antibody, V domains shown)
VH: QVQLVESGGGVVQPGRSLRLSCAASGFTFNNYVMHWVRQAPGKGLEWVAVIWYDGSNKYYADSVKGRFTISRDNSKNTLYLQMTSLRAEDTAVYYCAREKYSSNWYDYGMDVWGQGTTVTVSS
VL: DIQMTQSPSSLSASVGDRVTITCRASQGIRNDLGWYQQRPGKAPKRLIYAASSLQSGVPSRFSGSGSGTEFTLTISSLQPEDSATYYCLHQYSYPRTFGQGTKVEIK
notes: as for B1
B8: 5E5 (antibody, V domains shown)
VH: B7 VH with N30S, T84N, A97T, K100V, N104G
VL: B7 VL with R39K, S83F, H90Q, Q91H, I106V
notes: as for B1
B9: 184E7 (antibody, V domains shown)
VH: QVQLVQSGAEVKTPGASVKVSCRASGYTFTSYNMHWVRQVPGQGLEWMGWINPNNGGSNYTQKFQGRVTMTRDTSISTAYMELSRLRSDDTAVYYCARKFGDWGQGTLVTVSS
VL: DIQMTQSPSSRSASIGERVTITCRASQGISNYLAWIQQKPGTAPKSLIYAASSLQSGVSSRFSGSGFGTDFTITISSVQREDFATYYCQQYNGYPFTFGHGTKVDIK
notes: as for B1
B10: 48B12 (antibody, V domains shown)
VH: EVQLLESGGGLVQPGGSLRLSCAASGFTFSSYAMNWVRQAPGKGLEWVSAISGRGGNTFYADSVKGRFTISRDNSKNTLYLQMNSLRAEDTAVYYCAKRETYNWNYEGFDYWGQGTLVTVSS
VL: SYELTQPPSVSVSPGQTARITCSGDALPKKYAYWYQQKSGQAPVLVIYEDSKRPSGIPERFSGSSSGTMATLTISGAQVEDEADYYCNSTDSSGNHVVFGGGTKLTVL
notes: as for B1
B11: 194A4 (antibody, V domains shown)
VH: QVQLVQSGTEVKKPGASLKVSCKASGYTFTVYYLNWVRQAPGQGLEWMGWINPNSGGTNYAQKFQGRVTMTRDTSISTAYMELSRLRSDDTAVYYCARGYDILTGWGQGTLVTVSS
VL: EIVLTQSPGTLSLSPGERATLSCRASRGVSNIYLAWYQQKPGQAPRLLIYGASNRATGIPDRFSGSGSGTDFTLTISRLEPEDFAVYYCQHNDYSMFTFGPGTKVDIK
notes: as for B1
B12: 4B1 (antibody, V domains shown)
VH: QVQLQESGPGLVKPSETLSLTCSVSGDSISSYSWSWIRQPAGKGLEWIGRIYTSGSTNYIPSLKSRITMSVDTSKKQFSLKLSSVTAADTAVYYCARDLKSSGCLFFDYWGQGTLVTVSS
VL: DIQMTQSPSSLSASVGDRVTITCRASHTIRTYLNWYQQKPGKAPKLLIYAASSLQSGVPSRINGSGSGTDFTLTITNLQPEDFATYYCQQSYNISFTFGPGTKVDIK
notes: as for B1
B13: 194C1 (antibody, V domains shown)
VH: QVQLVESGGGVVQPGRSLRLSCAASGFTFSSYGMHWVRQAPGKGLEWVAVIWYDGSNEHYADSVKGRFTISRDNSKNTLYLQMNSLRAEDTAVYYCARNRGVGYYGLDVWGQGTTVTVSS
VL: DIQMTQSPSSLSASVGDRVTITCRASQGISNYLAWFQQKPGKAPKSLIYAASSLQSGVPSKFSGSGSGTDFTLTISSLQPEDFATYYCLHYLTYPLTFGGGTKVEIK
notes: as for B1
B14: 197G3 (antibody, V domains shown)
VH: B13 VH with A23V, Y32H, E58K, H59N, N99D, R100P, G101S, Y105D, L107M
VL: DIQMTQSPSSLSASVGDRVTITCRASQGIGNHLAWFQQKPGKAPKSLIYAASSLQSGVPSKFSGSRSGTDFSLTISSLQPEDFATYYCQQYSNYPVTFGPGTKVDIK
notes: as for B1
B15: 190F8 (antibody, V domains shown)
VH: B13 VH with S31T, E58K, H59N, N99D, R100Q, Y105D
VL: B13 VL with A25T, S30G, I48L, A50K, L89Q, H90Q, L92M
notes: as for B1
B16: 191G1 (antibody, V domains shown)
VH: B13 VH with N99D
VL: B13 VL with L89Q
notes: as for B1
B17: 198G3 (antibody, V domains shown)
VH: B13 VH with R19K, S31T, S56T, E58K, H59N, Y80C, N99D, R100Q, Y105D
VL: B13 VL with T5A, A25T, S30G, N31K, I48L, A50K, S56G, L89Q, H90Q, L92M
notes: as for B1
B18: 191G10 (antibody, V domains shown)
VH: B13 VH with E58K, H59N, N99D, R100Q, Y105D
VL: B13 VL with A25T, S30G, N31K, I48L, A50K, A51V, L89Q, H90Q, L92M
notes: as for B1

The target of the assay is T1, Soluble ASGR-1 (recombinant, …). Kind of assay: limiting antigen bead FACS; biotinylated soluble ASGR-1 coated at 2.5 ng/mL on LumAvidin beads.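 Also: hybridoma supernatants of ligand-competing antibodies bound to antigen-loaded beads, read by flow cytometry on an iQue Screener in calcium-containing buffer, higher fluorescence meaning stronger relative affinity.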
For the molecule B1, the “FACS Geomean” value was determined as 1080.
Regarding B2, the “FACS Geomean” value stood at 4660.
Next, B3: 18000.
In the case of B4, the “FACS Geomean” value was 16600.
On to B5, for which the “FACS Geomean” value came out at 12000.
Turning to B6, the “FACS Geomean” value was 12200.
Turning to B7, the “FACS Geomean” value was determined as 6800.
Regarding B8, the “FACS Geomean” value worked out at 3280.
As to B9, the “FACS Geomean” value turned out to be 40200.
Turning to B10, the “FACS Geomean” value turned out to be 27000.
Take B11: the “FACS Geomean” value came to 38900.
Turning to B12, the “FACS Geomean” value turned out to be 10100.
Consider B13, for which the “FACS Geomean” value is 16900.
Next, B14: 17700.
On to B15, for which the “FACS Geomean” value was 13900.
Under B16 stands 9550; under B17, 26000; under B18, 24200.
